Entries after “also recorded” stand apart in the source; their conditions may differ.
Test system: ulcer model of delayed skin wound healing (60 sec ethanol exposure model)
Experiment: Healing effect of GM-CSF external agent on intractable skin ulcer
Assay type: in vivo
Protocol: By using a C57BL/6 mouse, an ulcer model of delayed skin wound healing as an intractable skin ulcer model was produced. Specifically, full thickness dorsal skin tissue with a size of 2×1.5 cm of a C57BL/6 mouse was excised, whereby the fascia was exposed with almost no bleeding. Then, the wound area was completely covered with cotton which had been sufficiently soaked in 70% ethanol, whereby ethanol exposure for 30 sec, 60 sec, 300 sec and 600 sec was carried out. After that, the wound area was air-dried, and the area of the wound area was measured (day 0). 7 days after completion of the experiment, the area of the wound area was measured, which was compared with the area of the wound area on day 0, and a change in the area of the wound area was examined. As a result, the shrinkage of the wound area was reduced as the time of ethanol exposure was increased, and the shrinkage hardly occurred by the 300 sec exposure. Incidentally, the mouse subjected to 600 sec ethanol exposure died at 3 days after the experiment due to deterioration of systemic symptoms. In the case where the time of ethanol exposure was short such as 30 sec exposure or 60 sec exposure, the healing was delayed because the tissue around the wound area directly received degenerative damage due to ethanol, however, granulation tissue was formed in the wound area in one week after the ethanol exposure, and the wound area was covered with epidermal tissue in about 3 weeks and the healing was completed. The 60 sec exposure was to be a factor of delaying the shrinkage of the wound area, but there was no systemic symptom and its effect was sufficient, therefore, this mouse was adopted as an ulcer model of delayed skin wound healing.
As GM-CSF, a mouse-derived recombinant (R&D System) was used. A solution obtained by dissolving this GM-CSF in an atelocollagen solution at a concentration of 20 μg/100 μL was applied to an affected area of the above-mentioned ulcer model of delayed skin wound healing (60 sec ethanol exposure model) and coagulated, and evaluation was performed in the healing process for 7 days. Further, a group in which only an atelocollagen solution (a 3 mg/mL hydrochloric acid solution) was applied to the affected area and coagulated was used as a control. […] When the shrinkage of the wound area after 7 days was examined, the relative area of the wound area in the GM-CSF administration group was larger by about 15% than that of the control group, and the shrinking action of natural healing of a wound area was inhibited, and the wound area was exacerbated.

B1: GM-CSF: granulocyte macrophage colony stimulating factor, mouse-derived recombinant (R&D System), dissolved in atelocollagen solution (protein, UniProt P01587 18-141, looked up)
Granulocyte-macrophage …: APTRSPITVTRPWKHVEAIKEALNLLDDMPVTLNEEVEVVSNEFSFKKLTCVQTRLKIFEQGLRGNFTKLKGALNMTASYYQTYCPPTPETDCETQVTTYADFIDSLKTFLTDIPFECKKPGQK
histology / symptoms of the wound area (edema, swelling) (20 μg/100 μL in atelocollagen solution, 7-day period): edema was noted
thickness of granulation tissue compared with control group (20 μg/100 μL in atelocollagen solution, 7 days): slightly thicker
relative area of the wound area, larger than that of the control group (20 μg/100 μL in atelocollagen solution, after 7 days, control atelocollagen only): about 15%
wound healing effect on intractable skin ulcer (overall finding) (external application): does not have an effect on intractable skin ulcers; also recorded: does not have a wound healing accelerating effect
